B1: ECFP-SUV39H1 (enzyme, human, UniProt O43463-1 1-412, looked up)
chain: MAENLKGCSVCCKSSWNQLQDLCRLAKLSCPALGISKRNLYDFEVEYLCDYKKIREQEYYLVKWRGYPDSESTWEPRQNLKCVRILKQFHKDLERELLRRHHRSKTPRHLDPSLANYLVQKAKQRRALRRWEQELNAKRSHLGRITVENEVDLDGPPRAFVYINEYRVGEGITLNQVAVGCECQDCLWAPTGGCCPGASLHKFAYNDQGQVRLRAGLPIYECNSRCRCGYDCPNRVVQKGIRYDLCIFRTDDGRGWGVRTLEKIRKNSFVMEYVGEIITSEEAERRGQIYDRQGATYLFDLDYVEDVYTVDAAYYGNISHFVNHSCDPNLQVYNVFIDNLDERLPRIAFFATRTIRAGEELTFDYNMQVDPVDMESTRMDSNFGLAGLPGSPKKRVRIECKCGTESCRKYLF
B2: ECFP–SUV39H1-ΔSET (domain or fragment, human, UniProt O43463-1 3-249, looked up)
chain: ENLKGCSVCCKSSWNQLQDLCRLAKLSCPALGISKRNLYDFEVEYLCDYKKIREQEYYLVKWRGYPDSESTWEPRQNLKCVRILKQFHKDLERELLRRHHRSKTPRHLDPSLANYLVQKAKQRRALRRWEQELNAKRSHLGRITVENEVDLDGPPRAFVYINEYRVGEGITLNQVAVGCECQDCLWAPTGGCCPGASLHKFAYNDQGQVRLRAGLPIYECNSRCRCGYDCPNRVVQKGIRYDLCIFR
B3: ECFP–SUV39H1-Nchromo (domain or fragment, human, UniProt O43463-1 3-118, looked up)
chain: ENLKGCSVCCKSSWNQLQDLCRLAKLSCPALGISKRNLYDFEVEYLCDYKKIREQEYYLVKWRGYPDSESTWEPRQNLKCVRILKQFHKDLERELLRRHHRSKTPRHLDPSLANYL

Target: EYFP-HP1β (UniProt P83916 1-185)
Sequence (P83916 whole entry): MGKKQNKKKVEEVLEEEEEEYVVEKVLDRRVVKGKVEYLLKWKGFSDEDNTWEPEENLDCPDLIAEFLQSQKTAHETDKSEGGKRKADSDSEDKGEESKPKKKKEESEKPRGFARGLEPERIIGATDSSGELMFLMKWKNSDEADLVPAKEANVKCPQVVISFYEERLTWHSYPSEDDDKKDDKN
Test: FRET or BRET

Row | Binder | mean donor fluorescence lifetime τ Mod | mean donor fluorescence lifetime τφ
1 | B1 | 2.9 ns | 2.2 ns
2 | B2 | 2.7 ns | 2.1 ns
3 | B3 | 2.8 ns | 2.2 ns

Reference: article PMC2171490 (The Journal of Cell Biology, 2005)
